Molecular target: recombinant human IL-8, (ser-IL-8)72 (human, UniProt P10145 28-99)
Experiment: competition radioimmunoassay (unlabeled IL-8/125I-IL-8)

B1: full length 6G4V11N35A IgG1 (antibody, V domains shown)
VH: EVQLVQSGGGLVQPGGSLRLSCAASGYSFSSHYMHWVRQAPGKGLEWVGYIDPSNGETTYNQKFKGRFTLSRDNSKNTAYLQMNSLRAEDTAVYYCARGDYRYNGDWFFDVWGQGTLVTVSS
VL: DIQMTQSPSSLSASVGDRVTITCRSSQSLVHGIGATYLHWYQQKPGKAPKLLIYKVSNRFSGVPSRFSGSGSGTDFTLTISSLQPEDFATYYCSQSTHVPLTFGQGTKVEIKR
- IC50: 59 pM
